{
  "source": "patent US20140363428A1",
  "about": "(Chugai, published 2014)",
  "binders": {"B1": {"name": "IgG1-F1147 (antibody)", "heavy": "QVQLQESGPGLVKPSETLSLTCAVSGHSISHDHAWSWVRQPPGEGLEWIGFISYSGITNYNPSLQGRVTISRDNSKNTLYLQMNSLRAEDTAVYYCARSLARTTAMDYWGEGTLVTVSSASTKGPSVFPLAPSSKSTSGGTAALGCLVKDYFPEPVTVSWNSGALTSGVHTFPAVLQSSGLYSLSSVVTVPSSSLGTQTYICNVNHKPSNTKVDKKVEPKSCDKTHTCPPCPAPELLGGPSVFLFPPKPKDTLYISRTPEVTCVVVDVSHEDPEVKFNWYVDGVEVHNAKTKPREEQYNSTYRVVSVLQVLHADWLNGKEYKCKVSNKALPAPIEKTISKAKGQPREPQVYTLPPSRDELTKNQVSLTCLVKGFYPSDIAVEWESNGQPENNYKTTPPVLDSDGSFFLYSKLTVDKSRWQQGNVFSCSVMHEALHYHYTRKELSLSP", "light": "not shown", "notes": "VH3-IgG1 with Fc substitutions (EU numbering) + L(WT)-CK"}, "B2": {"name": "IgG1-F1157 (antibody)", "heavy": "B1 heavy with Q309T, A313Q", "light": "not shown", "notes": "as for B1"}, "B3": {"name": "IgG1-F1151 (antibody)", "heavy": "B1 heavy with L237R, S241K, Q309T, A313Q, S426N, R440Q, E442S", "light": "not shown", "notes": "as for B1"}, "B4": {"name": "IgG1-F1154 (antibody)", "heavy": "B1 heavy with L237R, S241K, T252V, V310P, S426N, Y438V, R440Q, E442S", "light": "not shown", "notes": "as for B1"}, "B5": {"name": "IgG1-F1148 (antibody)", "heavy": "B1 heavy with L237R, S241K", "light": "not shown", "notes": "as for B1"}, "B6": {"name": "IgG1-F1146 (antibody)", "heavy": "B1 heavy with L237R, S241K, T252V, Y438V", "light": "not shown", "notes": "as for B1"}, "B7": {"name": "IgG1-F1158 (antibody)", "heavy": "B1 heavy with L237R, S241K, Q309T, A313Q", "light": "not shown", "notes": "as for B1"}, "B8": {"name": "IgG1-F1153 (antibody)", "heavy": "B1 heavy with L237R, S241K, T252V, S426N, Y438V, R440Q, E442S", "light": "not shown", "notes": "as for B1"}, "B9": {"name": "IgG1-F1152 (antibody)", "heavy": "B1 heavy with L237R, S241K, S426N, R440Q, E442S", "light": "not shown", "notes": "as for B1"}, "B10": {"name": "IgG1-F1138 (antibody)", "heavy": "B1 heavy with L237R, S241K, Q309T, A313Q, Y438V", "light": "not shown"}, "B11": {"name": "F1611 (antibody)", "chain 1": "QVQLQESGPGLVKPSETLSLTCAVSGHSISHDHAWSWVRQPPGEGLEWIGFISYSGITNYNPSLQGRVTISRDNSKNTLYLQMNSLRAEDTAVYYCARSLARTTAMDYWGEGTLVTVSSASTKGPSVFPLAPSSKSTSGGTAALGCLVKDYFPEPVTVSWNSGALTSGVHTFPAVLQSSGLYSLSSVVTVPSSSLGTQTYICNVNHKPSNTKVDKKVEPKSCDKTHTCPPCPAPELRGGPKVFLFPPKPKDTLYITLEPIVTCVVVDVSHEDPEVKFNWYVDGVEVHNAKTKPREEQYNSTYRVVSVLTVLHQDWLNGKEYKCKVSNKALPAPIEKTISKAKGQPREPQVYTLPPSRDELTKNQVSLTCLVKGFYPSDIAVEWESNGQPENNYKTTPPVLDSDGSFFLYSKLTVDKSRWQQGNVFSCSVMHEALDYHVTKKELSLSP", "chain 2": "DIQMTQSPSSLSASVGDSVTITCQASTDISSHLNWYQQKPGKAPELLIYYGSHLLSGVPSRFSGSGSGTDFTFTISSLEAEDAATYYCGQGNRLPYTFGQGTKVEIERTVAAPSVFIFPPSDEQLKSGTASVVCLLNNFYPREAKVQWKVDNALQSGNSQESVTEQDSKDSTYSLSSTLTLSKADYEKHKVYACEVTHQGLSSPVTKSFNRGEC"}, "B12": {"name": "F1605 (antibody)", "chain 1": "B11 chain 1 with I260E, K440R, E442D", "chain 2": "B11 chain 2"}, "B13": {"name": "F1610 (antibody)", "chain 1": "B11 chain 1 with I260D", "chain 2": "B11 chain 2"}, "B14": {"name": "F1586 (antibody)", "chain 1": "B11 chain 1 with I260D, K440R", "chain 2": "B11 chain 2"}, "B15": {"name": "F1592 (antibody)", "chain 1": "B11 chain 1 with K440R", "chain 2": "B11 chain 2"}, "B16": {"name": "F1599 (antibody)", "chain 1": "B11 chain 1 with L257R, I260E, E442D", "chain 2": "B11 chain 2"}, "B17": {"name": "F1612 (antibody)", "chain 1": "B11 chain 1 with I260D, E442D", "chain 2": "B11 chain 2"}, "B18": {"name": "F1654 (antibody)", "heavy": "B11 chain 1 with L257R, I260E, D435S, K440R, E442D", "light": "B11 chain 2"}, "B19": {"name": "IgG1-F1351 (antibody)", "heavy": "B1 heavy with L237R, S241K, Q309T, A313Q, Y438F", "light": "not shown"}, "B20": {"name": "F1655 (antibody)", "heavy": "B11 chain 1 with L257R, I260E, D435S, E442D", "light": "B11 chain 2"}, "B21": {"name": "IgG1-F1305 (antibody)", "heavy": "B11 chain 1 with T256S, L257R, E258T, I260E, K440R, E442D", "light": "not shown"}, "B22": {"name": "IgG1-F1262 (antibody)", "heavy": "B11 chain 1 with T256S, L257R, E258T, I260E, D435H", "light": "not shown"}, "B23": {"name": "IgG1-F1329 (antibody)", "heavy": "B11 chain 1 with G238R, L257R, E258T, I260E, D435H, K440R", "light": "not shown"}, "B24": {"name": "IgG1-F1349 (antibody)", "heavy": "B1 heavy with L237R, S241K, Q309T, A313Q, Y438T", "light": "not shown"}, "B25": {"name": "IgG1-F1269 (antibody)", "heavy": "B11 chain 1 with T256S, L257R, E258T, I260E, E442D", "light": "not shown"}, "B26": {"name": "IgG1-F1344 (antibody)", "heavy": "B1 heavy with L237R, S241K, Q309T, A313Q, Y438T, R440K", "light": "not shown"}, "B27": {"name": "IgG1-F1263 (antibody)", "heavy": "B11 chain 1 with T256S, L257R, E258T, I260E, D435H, E442D", "light": "not shown"}, "B28": {"name": "F1601 (antibody)", "heavy": "B11 chain 1 with L257R, I260E, N288E, E442D", "light": "B11 chain 2"}, "B29": {"name": "F1603 (antibody)", "heavy": "B11 chain 1 with I260E", "light": "B11 chain 2"}, "B30": {"name": "F1604 (antibody)", "heavy": "B11 chain 1 with I260E, E442D", "light": "B11 chain 2"}, "B31": {"name": "IgG1-F1331 (antibody)", "heavy": "B11 chain 1 with G238R, L257R, I260E, D435H, K440R", "light": "not shown"}, "B32": {"name": "IgG1-F1261 (antibody)", "heavy": "B1 heavy with L237R, S241K, Q309T, A313Q, Y438V, E442D", "light": "not shown"}, "B33": {"name": "IgG1-F1350 (antibody)", "heavy": "B1 heavy with L237R, S241K, Q309T, A313Q, Y438F, R440K", "light": "not shown"}, "B34": {"name": "IgG1-F1306 (antibody)", "heavy": "B11 chain 1 with T256S, L257R, E258T, I260E", "light": "not shown"}, "B35": {"name": "F1653 (antibody)", "heavy": "B11 chain 1 with L257R, I260E, D435S", "light": "B11 chain 2"}, "B36": {"name": "F1566 (antibody)", "heavy": "B11 chain 1 with L257R, I260E, N288E", "light": "B11 chain 2"}},
  "note": "Changes are numbered by the printed parent chain.",
  "data": [
    {"target": "T1, soluble human FcRn (heterodimer of FcRn alpha chain and beta2-microglobulin) (human, UniProt P55899 24-297; P61769 21-119)", "T1 construct": "Expressed in HEK293H and purified on IgG Sepharose; also called hFcRn", "T1 sequence (P55899 24-297 limits assumed, chain 1 of 2)": "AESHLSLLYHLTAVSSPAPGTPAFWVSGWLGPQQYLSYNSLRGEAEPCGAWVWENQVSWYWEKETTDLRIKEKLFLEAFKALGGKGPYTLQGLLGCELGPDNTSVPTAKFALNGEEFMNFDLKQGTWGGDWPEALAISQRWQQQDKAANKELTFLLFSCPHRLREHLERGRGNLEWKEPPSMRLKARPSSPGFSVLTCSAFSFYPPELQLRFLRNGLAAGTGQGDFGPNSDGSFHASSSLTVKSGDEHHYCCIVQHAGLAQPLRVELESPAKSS", "T1 sequence (P61769 21-119 limits assumed, chain 2 of 2)": "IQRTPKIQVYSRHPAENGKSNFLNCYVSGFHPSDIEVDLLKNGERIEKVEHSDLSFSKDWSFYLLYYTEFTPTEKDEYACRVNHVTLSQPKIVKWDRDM", "experiment": "SPR Biacore T100, antibody captured via protein L, hFcRn analyte, pH 7.0, 25 C;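 also: KD derived from kinetic ka and kd fits of sensorgrams, CM4 sensor chip, sodium phosphate NaCl Tween20 running buffer, buffer-only injection used as reference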", "units": {"Kd": "nM"}, "description": "An appropriate amount of protein L (ACTIGEN) was immobilized onto Sensor chip CM4 (GE Healthcare) by the amino coupling method, and the chip was allowed to capture an antibody of interest. Then, diluted FcRn solutions and running buffer (as a reference solution) were injected to allow human FcRn to interact with the antibody captured on the sensor chip. The running buffer used comprised 50 mmol/l sodium phosphate, 150 mmol/l NaCl, and 0.05% (w/v) Tween20 (pH 7.0). FcRn was diluted using each buffer. The chip was regenerated using 10 mmol/l glycine-HCl (pH 1.5). Assays were carried out exclusively at 25 degrees C. The association rate constant ka (1/Ms) and dissociation rate constant kd (1/s), both of which are kinetic parameters, were calculated based on the sensorgrams obtained in the assays, and KD (M) of each antibody for human FcRn was determined from these values. Each parameter was calculated using Biacore T100 Evaluation Software (GE Healthcare).", "values": [
      {"binder": "B1", "Kd": 72},
      {"binder": "B2", "Kd": 210},
      {"binder": "B3", "Kd": 250},
      {"binder": "B4", "Kd": 13},
      {"binder": "B5", "Kd": 76},
      {"binder": "B6", "Kd": 62},
      {"binder": "B7", "Kd": 240},
      {"binder": "B8", "Kd": 48},
      {"binder": "B9", "Kd": 74}
    ]},
    {"target": "T2, soluble human FcRn (human, UniProt P55899 24-297; P61769 21-119)", "T2 construct": "Heterodimer of alpha chain and beta2-microglobulin; also called hFcRn", "T2 sequence (P55899 24-297 limits assumed, chain 1 of 2)": "as the sequence (P55899 24-297 limits assumed, chain 1 of 2) above", "T2 sequence (P61769 21-119 limits assumed, chain 2 of 2)": "as the sequence (P61769 21-119 limits assumed, chain 2 of 2) above", "experiment": "SPR (Biacore), pH 7.0", "units": {"Kd": "nM"}, "values": [
      {"binder": "B10", "Kd": 170},
      {"binder": "B11", "Kd": 52},
      {"binder": "B12", "Kd": 61},
      {"binder": "B13", "Kd": 48},
      {"binder": "B14", "Kd": 55},
      {"binder": "B15", "Kd": 55},
      {"binder": "B16", "Kd": 74},
      {"binder": "B17", "Kd": 49},
      {"binder": "B18", "Kd": 45},
      {"binder": "B19", "Kd": 160},
      {"binder": "B20", "Kd": 44},
      {"binder": "B21", "Kd": 200},
      {"binder": "B22", "Kd": 130},
      {"binder": "B23", "Kd": 130},
      {"binder": "B24", "Kd": 340},
      {"binder": "B25", "Kd": 170},
      {"binder": "B26", "Kd": 400},
      {"binder": "B27", "Kd": 120},
      {"binder": "B28", "Kd": 35},
      {"binder": "B29", "Kd": 59},
      {"binder": "B30", "Kd": 60},
      {"binder": "B31", "Kd": 77},
      {"binder": "B32", "Kd": 140},
      {"binder": "B33", "Kd": 120},
      {"binder": "B34", "Kd": 190},
      {"binder": "B35", "Kd": 45},
      {"binder": "B36", "Kd": 40}
    ]}
  ]
}
